From US20180362766A1, “Fluorogenic pH-Sensitive Dyes and Their Methods of Use” (Life Technologies Corporation, priority 2012, published 2018) come the findings set out here.

For the test, the system named is A 431 cells. In words: Live cell internalization (endocytosis) of dye-labeled EGF, fluorescence imaging. Type of test: cell-based. Here is the method:
A 431 cells were grown in complete medium on 35 mm poly-D-lysine coated glass bottom culture dishes from MatTek. On the day of the assay, cells were rinsed once with LCIS +1% BSA (Live Cell imaging solution, Cat# A14291DJ) and placed at 37° C. Control dishes received LCIS; EGF pretreatment dishes received 10 μg/mL unlabeled EGF in LCIS. Cells were incubated at 37° C. for 30 minutes. Cells were then cooled to 4° C. on ice for 10 minutes. Compound (24)-labeled EGF was added to the dishes 1:10 at 5 μg/mL from a 50 μg/mL stock in LCIS. These dishes were incubated on ice for 30 minutes, then washed 2× with cold LCIS and allowed to warm to 37° C. for 60 minutes before imaging with standard TRITC and FITC filter sets on a DeltaVision Core microscope. […] All images were matched for gain and exposure times.

B1: Compound (24)-labeled EGF: epithelial growth factor (EGF) conjugated to Compound (24) STP ester, degree of substitution 1 (conjugate, UniProt P01133 23-1207, looked up)
Pro-epidermal growth factor: PQHWSCPEGTLAGNGNSTCVGPAPFLIFSHGNSIFRIDTEGTNYEQLVVDAGVSVIMDFHYNEKRIYWVDLERQLLQRVFLNGSRQERVCNIEKNVSGMAINWINEEVIWSNQQEGIITVTDMKGNNSHILLSALKYPANVAVDPVERFIFWSSEVAGSLYRADLDGVGVKALLETSEKITAVSLDVLDKRLFWIQYNREGSNSLICSCDYDGGSVHISKHPTQHNLFAMSLFGDRIFYSTWKMKTIWIANKHTGKDMVRINLHSSFVPLGELKVVHPLAQPKAEDDTWEPEQKLCKLRKGNCSSTVCGQDLQSHLCMCAEGYALSRDRKYCEDVNECAFWNHGCTLGCKNTPGSYYCTCPVGFVLLPDGKRCHQLVSCPRNVSECSHDCVLTSEGPLCFCPEGSVLERDGKTCSGCSSPDNGGCSQLCVPLSPVSWECDCFPGYDLQLDEKSCAASGPQPFLLFANSQDIRHMHFDGTDYGTLLSQQMGMVYALDHDPVENKIYFAHTALKWIERANMDGSQRERLIEEGVDVPEGLAVDWIGRRFYWTDRGKSLIGRSDLNGKRSKIITKENISQPRGIAVHPMAKRLFWTDTGINPRIESSSLQGLGRLVIASSDLIWPSGITIDFLTDKLYWCDAKQSVIEMANLDGSKRRRLTQNDVGHPFAVAVFEDYVWFSDWAMPSVMRVNKRTGKDRVRLQGSMLKPSSLVVVHPLAKPGADPCLYQNGGCEHICKKRLGTAWCSCREGFMKASDGKTCLALDGHQLLAGGEVDLKNQVTPLDILSKTRVSEDNITESQHMLVAEIMVSDQDDCAPVGCSMYARCISEGEDATCQCLKGFAGDGKLCSDIDECEMGVPVCPPASSKCINTEGGYVCRCSEGYQGDGIHCLDIDECQLGEHSCGENASCTNTEGGYTCMCAGRLSEPGLICPDSTPPPHLREDDHHYSVRNSDSECPLSHDGYCLHDGVCMYIEALDKYACNCVVGYIGERCQYRDLKWWELRHAGHGQQQKVIVVAVCVVVLVMLLLLSLWGAHYYRTQKLLSKNPKNPYEESSRDVRSRRPADTEDGMSSCPQPWFVVIKEHQDLKNGGQPVAGEDGQAADGSMQPTSWRQEPQLCGMGTEQGCWIPVSSDKGSCPQVMERSFHMPSYGTQTLEGGVEKPHSLLSANPLWQQRALDPPHQMELTQ
modifications: Pro-epidermal growth factor Compound (24) dye conjugate
Regarding B1, the “fluorescent signal from dye-labeled EGF internalization” value (cells pretreated with 10 μg/mL unlabeled EGF) is “no signal” and the “fluorescent signal from dye-labeled EGF internalization” value (untreated (control) plates, 5 μg/mL labeled EGF, 60 minutes at 37° C.) is “Specific signal”.
